# Test results taken from patent US20030219410A1 (TRANSGENE S A, published 2003).
# T1: recombinant PML (wild-type 69 kDa isoform PML, PML3B) (UniProt P29590 1-560)
# T1 construct: Untagged protein used in the co-transfection and co-localisation experiments; also called Promyelocytic Leukemia Protein
# T1 sequence: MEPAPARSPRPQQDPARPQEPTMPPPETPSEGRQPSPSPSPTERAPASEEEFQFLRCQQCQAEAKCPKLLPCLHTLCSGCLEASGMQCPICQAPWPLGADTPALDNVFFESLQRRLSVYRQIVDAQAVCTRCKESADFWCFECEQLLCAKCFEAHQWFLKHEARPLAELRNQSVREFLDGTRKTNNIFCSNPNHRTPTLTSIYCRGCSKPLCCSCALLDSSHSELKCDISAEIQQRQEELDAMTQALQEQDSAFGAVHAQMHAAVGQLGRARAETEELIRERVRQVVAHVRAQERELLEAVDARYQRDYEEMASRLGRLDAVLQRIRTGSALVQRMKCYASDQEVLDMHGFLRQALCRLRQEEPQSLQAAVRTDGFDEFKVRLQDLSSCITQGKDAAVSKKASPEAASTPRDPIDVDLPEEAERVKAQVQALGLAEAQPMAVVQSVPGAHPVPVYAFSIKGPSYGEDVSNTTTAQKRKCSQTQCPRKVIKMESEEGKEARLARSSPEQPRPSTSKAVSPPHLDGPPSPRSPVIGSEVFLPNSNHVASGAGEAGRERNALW
# B1: recombinant wt pIX protein (other)
# chain: MSTNSFDGSIVSSYLTTRMPPWAGVRQNVMGSSIDGRPVLPANSTTLTYETVSGTPLETAASAAASAAAATARGIVTDFAFLSPLASSAASRSSARDDKLTALLAQLDSLTRELNVVSQQLLDLRQQVSALKASSPPNAV
# notes: Untagged protein used in the co-transfection and co-localisation experiments
# Target: T1, recombinant PML (wild-type 69 kDa …)
# Assay: co-localisation by immunostaining and EM in transiently co-transfected cells
binder,measurement,value
B1,binding result,binds
